# Measured values taken from IntAct's records for PubMed 18971339.
# B1: Interferon-induced, double-stranded RNA-activated protein kinase (Homo sapiens), P19525 (parent)
# chain: MAGDLSAGFFMEELNTYRQKQGVVLKYQELPNSGPPHDRRFTFQVIIDGREFPEGEGRSKKEAKNAAAKLAVEILNKEKKAVSPLLLTTTNSSEGLSMGNYIGLINRIAQKKRLTVNYEQCASGVHGPEGFHYKCKMGQKEYSIGTGSTKQEAKQLAAKLAYLQILSEETSVKSDYLSSGSFATTCESQSNSLVTSTLASESSSEGDFSADTSEINSNSDSLNSSSLLMNGLRNNQRKAKRSLAPRFDLPDMKETKYTVDKRFGMDFKEIELIGSGGFGQVFKAKHRIDGKTYVIKRVKYNNEKAEREVKALAKLDHVNIVHYNGCWDGFDYDPETSDDSLESSDYDPENSKNSSRSKTKCLFIQMEFCDKGTLEQWIEKRRGEKLDKVLALELFEQITKGVDYIHSKKLIHRDLKPSNIFLVDTKQVKIGDFGLVTSLKNDGKRTRSKGTLRYMSPEQISSQDYGKEVDLYALGLILAELLHVCDTAFETSKFFTDLRDGIISDIFDKKEKTLLQKLLSKKPEDRPNTSEILRTLTVWKKSPEKNERHTC
# partner: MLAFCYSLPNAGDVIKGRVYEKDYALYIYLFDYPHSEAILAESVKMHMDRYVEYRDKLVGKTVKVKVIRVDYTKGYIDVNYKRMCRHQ
# Variants of: B1
# Settings: with pg041_vaccc OPG041, P20639
row,Variant,effect of a mutation on the interaction
1,MAGDLSAGFFMEELNTYRQKQGVVLKYQELPNSGPPHDRRFTFQVIIDGREFPEGEGRSKKEAKNAAAKLAVEILNKEKKAVSPLLLTTTNSSEGLSMGNYIGLINRIAQKKRLTVNYEQCASGVHGPEGFHYKCKMGQKEYSIGTGSTKQEAKQLAAKLAYLQILSEETSVKSDYLSSGSFATTCESQSNSLVTSTLASESSSEGDFSADTSEINSNSDSLNSSSLLMNGLRNNQRKAKRSLAPRFDLPDMKETKYTVDKRFGMDFKEIELIGSGGFGQVFKAKHRIDGKTYVIKRVKYNNEKAEREVKALAKLDHVNIVHYNGCWDGFDYDPETSDDSLESSDYDPENSKNSSRSKTKCLFIQMEFCDKGTLEQWIEKRRGEKLDKVLALELFEQITKGVDYIHSKKLIHRDLKPSNIFLVDTKQVKIGDFGLVTSLKNDGKRTRSKGTLRYMSPEQISSQDYGKEVDLYALGLILAELLHVCVTAFETSKFFTDLRDGIISDIFDKKEKTLLQKLLSKKPEDRPNTSEILRTLTVWKKSPEKNERHTC [D486V],decreasing interaction strength
